Measured values from patent publication US7919276.
Like-named read-outs stand apart in the source and are kept apart here. Ends that are not written are not given here.

T1: lysine-acetylated histone H4 peptide SGRGKGG-AcK-GLGK
T1 chain: SGRGKGGKGLGK

T2: lysine-acetylated histone H4 peptide SGRGKGG-AcK-GLGK
T2 construct: also called H4 AcK-Peptide; AcK peptide
T2 peptide: SGRGKGGK(Ac)GLGK

T3: lysine-acetylated histone H4 peptide SGRGKGG-AcK-GLGK
T3 construct: also called AcK peptide; AcK-containing H4 peptide
T3 peptide: SGRGKGGK(Ac)GLGK

B1: P/CAF bromodomain Tyr802Ala mutant, Q92831 719-832 (protein)
chain: SKEPRDPDQLYSTLKSILQQVKSHQSAWPFMEPVKRTEAPGYYEVIRFPMDLKTMSERLKNRYYVSKKLFMADLQRVFTNCKEANAAESEYYKCANILEKFFFSKIKEAGLIDK
modifications: here or on the partner: acetyl-lysine (AcK) at Lys8
B2: P/CAF bromodomain Tyr760Ala mutant, Q92831 719-832 (protein)
chain: SKEPRDPDQLYSTLKSILQQVKSHQSAWPFMEPVKRTEAPGAYEVIRFPMDLKTMSERLKNRYYVSKKLFMADLQRVFTNCKEYNAAESEYYKCANILEKFFFSKIKEAGLIDK
modifications: here or on the partner: acetyl-lysine (AcK) at Lys8
B3: P/CAF bromodomain Val752Ala mutant, Q92831 719-832 (protein)
chain: SKEPRDPDQLYSTLKSILQQVKSHQSAWPFMEPAKRTEAPGYYEVIRFPMDLKTMSERLKNRYYVSKKLFMADLQRVFTNCKEYNAAESEYYKCANILEKFFFSKIKEAGLIDK
modifications: here or on the partner: acetyl-lysine (AcK) at Lys8
B4: P/CAF bromodomain (residues 719-832 of human p300/CBP-associated factor), wild-type (other)
chain: SKEPRDPDQLYSTLKSILQQVKSHQSAWPFMEPVKRTEAPGYYEVIRFPMDLKTMSERLKNRYYVSKKLFMADLQRVFTNCKEYNAAESEYYKCANILEKFFFSKIKEAGLIDK
notes: Expressed in E. coli with an N-terminal poly-His tag that thrombin removed; residues left over from the vector are not described; 15N-labelled for the NMR titration; also called hsp/CAF bromodomain; bromodomain of P/CAF
B5: P/CAF bromodomain Tyr809Ala mutant (other)
chain: SKEPRDPDQLYSTLKSILQQVKSHQSAWPFMEPVKRTEAPGYYEVIRFPMDLKTMSERLKNRYYVSKKLFMADLQRVFTNCKEYNAAESEAYKCANILEKFFFSKIKEAGLIDK
notes: Point mutant of the P/CAF bromodomain made by site-directed mutagenesis
B6: P/CAF bromodomain Tyr809Ala mutant (other)
chain: SKEPRDPDQLYSTLKSILQQVKSHQSAWPFMEPVKRTEAPGYYEVIRFPMDLKTMSERLKNRYYVSKKLFMADLQRVFTNCKEYNAAESEAYKCANILEKFFFSKIKEAGLIDK
notes: Made by site-directed mutagenesis of the wild-type bromodomain construct

Experiments:
[1] = target: T1, lysine-acetylated histone H4 peptide …; assay: NMR titration, 15N-HSQC chemical shift changes against ligand concentration; conditions: remark: other sources report otherwise
[2] = target: T2, lysine-acetylated histone H4 peptide …; assay: as above
[3] = target: T2, lysine-acetylated histone H4 peptide …; assay: NMR titration, 15N-HSQC chemical shift changes
[4] = target: T3, lysine-acetylated histone H4 peptide …; assay: NMR titration, 15N-HSQC

Row | Binder | Kd [1] [mM] | also measured
1 | B1 | > 10 | 
2 | B2 | > 10 | 
3 | B3 | > 10 | 
4 | B4 |  | Kd [2]: 0.346 mM
5 | B5 |  | binding result [3]: no binding
6 | B6 |  | binding result [4]: no binding
